Like-named read-outs stand apart in the source and are kept apart here.
B1: MOR021460 (antibody, human IgG1, lambda, L234A L235A, V domains shown)
VH: QVQLLESGGGLVQPGGSLRLSCAASGFTFSDYALHWVRQAPGKGLEWVSVISYQGGFIYYADSVKGRFTISRDNSKNTLYLQMNSLRAEDTAVYYCARSPGLTSYHDSWGQGTLVTVSS
VL: DIVLTQPPSVSGAPGQRVTISCSGSSSNIGSNYVSWYQQLPGTAPKLLIHSNSHRPSGVPDRFSGSKSGTSASLAITGLQAEDEADYYCQSWDYESERVVFGGGTKLTVLG
notes: also called MOR21460
B2: MOR22028 (antibody, human IgG1, lambda, L234A L235A, V domains shown)
VH: QVQLLESGGGLVQPGGSLRLSCAASGFTFSDYALHWVRQAPGKGLEWVSVISYAGGFKFYADSVKGRFTISRDNSKNTLYLQMNSLRAEDTAVYYCARSPGLTSYHDSWGQGTLVTVSS
VL: QSVLTQPPSVSGAPGQRVTISCSGSSSNIGSNYVSWYQQLPGTAPKLLIHSSSHRPSGVPDRFSGSKSGTSASLAITGLQAEDEADYYCQSWDYESERVVFGGGTKLTVLG
notes: Human IgG1f LALA; also called MOR022028; MOR20228
B3: MOR022025 (antibody, human IgG1, lambda, L234A L235A, V domains shown)
VH: QVQLLESGGGLVQPGGSLRLSCAASGFTFSDYALHWVRQAPGKGLEWVSVISYQGGFIYYADSVKGRFTISRDNSKNTLYLQMNSLRAEDTAVYYCARSPGLTSYHDSWGQGTLVTVSS
VL: QSVLTQPPSVSGAPGQRVTISCSGSSSNIGSNYVSWYQQLPGTAPKLLIHSTSHRPSGVPDRFSGSKSGTSASLAITGLQAEDEADYYCQSWDYESERVVFGGGTKLTVLG
notes: Human IgG1f LALA; also called MOR20225; MOR020225
B4: MOR020133 (antibody, human IgG1, lambda, L234A L235A, V domains shown)
VH: QVQLVQSGAEVKKPGESLKISCKGSGYSFTNYWIAWVRQMPGKGLEWMGRIFPGDSTTTYSPSFQGQVTISADKSISTAYLQWSSLKASDTAMYYCARGKRGATHPTQYEGWEVYGFDPWGQGTLVTVSS
VL: DIELTQPPSVSVSPGQTASITCSGDALGGKYASWYQQKPGQAPVLVIYDDNKRPSGIPERFSGSNSGNTATLTISGTQAEDEADYYCQSWAFYSGVFGGGTKLTVLG
notes: also called MOR20133
B5: MOR020148 (antibody, human IgG1, lambda, L234A L235A, V domains shown)
VH: QVQLLESGGGLVQSGGSLRLSCAASGFTFRSGAAMHWVRQAPGKGLEWVSGISSFSSSTDYADSVKGRFTISRDNSKNTLYLQMNSLRAEDTAVYYCARNFKYAMDYWGQGTLVTVSS
VL: DIALTQPASVSGSPGQSITISCTGTSSDVGSINYVSWYQQHPGKAPKMIYAVSYRPSGVSNRFSGSKSGNTASLTISGLQAEDEADYYCQVWDWRSDSRVFGGGTKLTVLG
notes: also called MOR20148
B6: MOR22029 (antibody, human IgG1, lambda, L234A L235A)
heavy: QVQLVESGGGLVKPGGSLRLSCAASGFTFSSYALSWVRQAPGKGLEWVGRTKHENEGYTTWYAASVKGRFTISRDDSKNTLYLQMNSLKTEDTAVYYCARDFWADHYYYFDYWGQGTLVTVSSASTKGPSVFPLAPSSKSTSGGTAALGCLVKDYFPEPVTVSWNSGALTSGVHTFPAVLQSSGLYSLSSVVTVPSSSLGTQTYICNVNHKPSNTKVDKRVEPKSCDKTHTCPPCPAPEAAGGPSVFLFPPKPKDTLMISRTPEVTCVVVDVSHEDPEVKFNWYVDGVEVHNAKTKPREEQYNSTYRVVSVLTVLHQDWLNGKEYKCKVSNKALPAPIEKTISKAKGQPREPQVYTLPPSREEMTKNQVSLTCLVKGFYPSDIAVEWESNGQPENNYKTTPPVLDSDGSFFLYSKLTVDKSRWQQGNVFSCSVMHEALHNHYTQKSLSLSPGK
light: QSALTQPASVSGSPGQSITISCTGTSSDVGYINYVNWYQQHPGKAPKLMIYEVSNRPSGVSNRFSGSKSGNTASLTISGLQAEDEADYYCASWDWYDNVVFGGGTKLTVLGQPKAAPSVTLFPPSSEELQANKATLVCLISDFYPGAVTVAWKADSSPVKAGVETTTPSKQSNNKYAASSYLSLTPEQWKSHRSYSCQVTHEGSTVEKTVAPTECS
notes: Human IgG1f LALA; also called MOR022029; MOR20229
B7: MOR22030 (antibody, human IgG1, lambda, L234A L235A)
heavy: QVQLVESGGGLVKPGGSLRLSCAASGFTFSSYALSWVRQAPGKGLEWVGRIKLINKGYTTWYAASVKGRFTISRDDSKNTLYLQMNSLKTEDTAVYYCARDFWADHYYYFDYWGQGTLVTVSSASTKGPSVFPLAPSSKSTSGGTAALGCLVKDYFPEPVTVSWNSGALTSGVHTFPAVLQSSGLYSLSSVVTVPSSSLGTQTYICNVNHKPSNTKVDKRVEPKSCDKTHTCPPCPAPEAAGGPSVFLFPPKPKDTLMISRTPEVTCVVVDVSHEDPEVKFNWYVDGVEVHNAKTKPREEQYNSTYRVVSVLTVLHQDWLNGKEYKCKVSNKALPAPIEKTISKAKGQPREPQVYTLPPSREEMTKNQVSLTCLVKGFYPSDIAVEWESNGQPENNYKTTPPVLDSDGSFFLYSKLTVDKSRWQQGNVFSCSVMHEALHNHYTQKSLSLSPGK
light: QSALTQPASVSGSPGQSITISCTGTSSDVGYINYVNWYQQHPGKAPKLMIYEVSNRPSGVSNRFSGSKSGNTASLTISGLQAEDEADYYCASWDWYDNVVFGGGTKLTVLGQPKAAPSVTLFPPSSEELQANKATLVCLISDFYPGAVTVAWKADSSPVKAGVETTTPSKQSNNKYAASSYLSLTPEQWKSHRSYSCQVTHEGSTVEKTVAPTECS
notes: Human IgG1f LALA; also called MOR022030; MOR20230
B8: MOR22031 (antibody, human IgG1, kappa, L234A L235A, V domains shown)
VH: QVQLVQSGAEVKKPGSSVKVSCKASGGTFSDYAISWVRQAPGQGLEWMGGIMPISGAPYYAQKFQGRVTITADESTSTAYMELSSLRSEDTAVYYCARDSSTSYYYYFDYWGQGTLVTVSS
VL: DIQMTQSPSSLSASVGDRVTITCRASQDISSWLAWYQQKPGKAPKLLIYQASNLQSGVPSRFSGSGSGTDFTLTISSLQPEDFATYYCQQIDHTPFTFGQGTKVEIKR
notes: Human IgG1f LALA; also called MOR022031; MOR20231
B9: MOR22034 (antibody, human IgG1, kappa, L234A L235A, V domains shown)
VH: QVQLVQSGAEVKKPGSSVKVSCKASGGTFSDYAISWVRQAPGQGLEWMGGIVPIVGTANYAQKFQGRVTITADESTSTAYMELSSLRSEDTAVYYCARDSSTSYYYYFDYWGQGTLVTVSS
VL: DIQMTQSPSSLSASVGDRVTITCRASQDISSWLAWYQQKPGKAPKLLIYQASNLQSGVPSRFSGSGSGTDFTLTISSLQPEDFATYYCQQMWQFPITFGQGTKVEIKR
notes: Human IgG1f LALA; also called MOR022034; MOR20234
B10: MOR020152 (antibody, human IgG1, lambda, L234A L235A, V domains shown)
VH: QVQLVQSGAEVKKPGSSVKVSCKASGGTFSSYAISWVRQAPGQGLEWMGRIIPIFGGANYAQKFQGRVTITADESTSTAYMELSSLRSEDTAVYYCARDPLYRSDYYYHWFDFWGQGTLVTVSS
VL: DIALTQPASVSGSPGQSITISCTGTSSDVGNFNYVSWYQQHPGKAPKLMIYGVNNRPSGVSNRFSGSKSGNTASLTISGLQAEDEADYYCAAYGWALDEVVFGGGTKLTVLG
notes: also called MOR20152

Columns and labels:
[1] = biological target: T1, APP-Avi-soluble human LOX-1(61-273) (human, UniProt P78380 61-273); assay: competition ELISA: oxLDL binding to plate-bound biotinylated human sLOX-1
Procedure: NeutrAvidin 384 well plates were coated with 2.5 μg/ml biotinylated LOX-1 diluted in PBS. After blocking with 25% Block Ace (AbD Serotec, Cat#BUF029) in PBS, purified Fabs or IgGs diluted in PBS/1% BSA were added. Subsequently OxLDL (copper-sulfate oxidized LDL, Kalen Biomedical #770202) or MDA-LDL (Academy Biomedical, #20P-UMD-L102) ligand diluted in PBS/1% BSA were allowed to bind to coated LOX-1. Secondary antibody (HRP conjugated sheep anti ApoB IgG; The Binding Site) diluted 1:1,000 in PBS/1% BSA was added followed by addition of TMB substrate (Thermo Scientific). After 10 minutes 1M H2SO4 was added and absorbance was determined at 450 nm. During early screenings, Fab fragments were also tested in this oxLDL binding assay using Fab-containing crude E. coli lysates.
The ability of LOX-1 antibodies to inhibit oxLDL binding to LOX-1 protein was determined using the method described in Example 4. In addition to “high binding OxLDL” from Kalen Biomedical (catalog number 770212-7), which is generated by copper sulfate mediated oxidation of LDL, two other forms of modified LDL were tested in this assay: malondialdehyde modified LDL (Academy Bio-Medical Co. catalog number 20P-MD-L105) and hypochlorite modified LDL. Hypochlorite modified LDL was prepared according to the following procedure. Human LDL (Kalen Biomedical catalog number 770200-4) was diluted with PBS to a final concentration of 0.25 mg/mL. Sodium hypochlorite (NaOCI, JT Baker catalog number 9416-01) was then added to 0.1 mM final concentration. The solution was incubated at room temperate for 4 hours, then quenched by adding L-methionine to a final concentration of reaction by adding 5 μl of 100 mM Mehionine per 200 μl total volume.

[2] = biological target: T1, APP-Avi-soluble human LOX-1(61-273); assay: SET, IgG vs soluble human LOX-1
Procedure: (§1) Affinity determination for anti-LOX-1 IgGs using Solution Equilibrium Titration (SET) was basically performed as described in the literature (Friguet et al., 1985 J Immunol Methods 77: 305-319). The assays were performed in a 96-well polypropylene plate (Thermo Scientific, Catalog no. AB-1127) using a constant concentration of LOX-1 antibody mixed with different concentrations of non-biotinylated human or cynomolgus monkey LOX-1 protein and incubated at 22° C. for 14 hours with constant shaking (300 rpm).
(§2) On a pre-blocked MSD plate (Meso Scale Discovery, catalog no. L21SA) biotinylated human or cynomolgus monkey soluble LOX-1 protein was immobilized and washed afterwards. The equilibrium binding reactions were then applied to the MSD plate with immobilized LOX-1 and incubated for 30 min. The unbound material was removed by washing the plate, and the captured antibody was detected by adding Sulfo-tagged goat anti-human IgG (Meso Scale Discovery, catalog no. R3AJ-1). After incubation and washing 1×MSD read buffer T(Meso Scale Discovery, catalog no. R92TC-2) was added and the plate was developed using a Sector Imager 6000 (Meso Scale Discovery). The data were transferred to Excel for analysis and plotted using GraphPad Prism v5. The KD values were determined by fitting the data to the following equation: […]

[3] = biological target: T2, APP-Avi-soluble cynomolgus monkey LOX-1(61-273) (cynomolgus monkey); assay: SET, IgG vs soluble cynomolgus LOX-1
T2 construct: Non-biotinylated as titrated antigen in SET, biotinylated for capture on the plate; also called cyno sLOX-1; cynomolgus monkey soluble LOX-1
Procedure: as §1, §2

[4] = biological target: T1, APP-Avi-soluble human LOX-1(61-273); assay: competition ELISA: AGE-BSA binding to plate-bound biotinylated human sLOX-1
Procedure: Purified APP-Avi-soluble human soluble LOX-1(61-273) protein prepared as described in Example 1 was biotinylated as described in Example 5. NeutrAvidin 384 well plates were coated with 5 μg/ml biotinylated LOX-1 diluted in bicarbonate buffer (Thermo Scientific). After blocking with PBS/2% BSA/0.1% Tween20/0.1% TritonX-100, purified Fabs or IgGs diluted in PBS/2% BSA/0.1% Tween20/0.1% TritonX-100 were added. Subsequently AGE-BSA ligand (R&D Systems, #BT4127) diluted in PBS/2% BSA/0.1% Tween20/0.1% TritonX-100 was allowed to bind to coated LOX-1. Streptavidin-HRP (R&D Systems) diluted 1:200 in PBS/2% BSA/0.1% Tween20/0.1% TritonX-100 was added followed by addition of TMB substrate (Thermo Scientific). After 10 minutes 1M H₂SO₄ was added and absorbance was determined at 450 nm. Assay performance was affected by the type of BSA used for blocking and diluent solutions. For optimal assay performance, BSA from Sigma (catalog #A4503) was used.

[5] = biological target: T1, APP-Avi-soluble human LOX-1(61-273); assay: SET, IgG vs soluble human LOX-1; remark: listed apart in the source
Procedure: as §1, §2

[6] = biological target: T3, human LOX-1 (full-length, on cells) (human, UniProt P78380 1-273); assay: flow cytometry: DiI-oxLDL binding to human LOX-1 transfected HEK293 cells
T3 construct: also called huLOX-1/HEK293 cells; human LOX-1 transfected HEK293 cells
Procedure: The huLOX-1/HEK293 cells were resuspended at 1×10⁶ cells/mL and seeded 50 μL per well into a 96-well V-bottom plate (5×10⁴ cells per well). LOX-1 or irrelevant control antibodies in assay medium (DMEM+10% FBS) were then added to the cells. Typical final antibody concentrations ranged from 0.006 μg/mL to 20 μg/mL. The cells were incubated at 37° C. for 1 hour, then washed twice with warm HBSS. Dil-oxLDL (human dil-labeled “High Oxidized” LDL, Kalen Biomedical, catalog number 770262-9; Dil is 1,1′-dioctadecyl-3,3,3′,3′-tetramethylindocarbocyanine perchlorate) in 50 ul assay medium was then added to a final concentration 30 to 100 μg/mL. The cells were then incubated at 37° C. for 2 hours, and then washed twice with FACS buffer (2% FBS in PBS). Cells were then analyzed for intensity of Di-I fluorescence by flow cytometry, as depicted in FIGS. 2A-2B and Table 3.

[7] = biological target: T3, human LOX-1 (full-length, on cells); assay: cell-based or functional assay

T2 sequence (chain, as listed by the source limits assumed): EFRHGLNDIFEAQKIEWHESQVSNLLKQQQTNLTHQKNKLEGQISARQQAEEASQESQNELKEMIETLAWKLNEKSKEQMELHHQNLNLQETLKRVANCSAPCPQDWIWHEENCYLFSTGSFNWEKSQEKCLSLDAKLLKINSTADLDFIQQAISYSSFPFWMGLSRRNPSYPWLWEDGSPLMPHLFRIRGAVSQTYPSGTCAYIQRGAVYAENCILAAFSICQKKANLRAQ

| Binder | IC50 [1] | Kd [2] | Kd [3] | IC50 [4] | Kd [5] | IC50 [6] | Inhibition of ROS generation (IC50, nM) [7] |
| --- | --- | --- | --- | --- | --- | --- | --- |
| B1 | 4000 pM | 0.3 pM | 0.7 pM | 2100 pM | 0.3 pM |  |  |
| B2 | 9000 pM |  | 0.5 pM |  | 0.6 pM | 700 pM | 3.5 nM |
| B3 | 11000 pM |  | 0.7 pM |  | 0.3 pM | 1000 pM | 4.6 nM |
| B4 | 6000 pM |  |  |  | 144 pM |  |  |
| B5 | 9000 pM |  |  |  | 6500 pM |  |  |
| B6 | 4000 pM |  | 7 pM |  | 10 pM | 400 pM | 2.2 nM |
| B7 | 6000 pM |  | 7 pM |  | 4 pM | 500 pM | 2.5 nM |
| B8 | 4000 pM |  | 4 pM |  | 3 pM | 800 pM | 1.9 nM |
| B9 | 10000 pM |  | 5 pM |  | 5 pM | 600 pM | 1.6 nM |
| B10 | 5000 pM |  |  |  | 1.4 pM |  |  |

Source: patent US20170260272A1 (Novartis, published 2017)
